Measurements: a protein production outcome set (Wang et al. 2014)

Test: label from the status in PepcDB records

For “MGFLNKLLSSEGPRKPKVKFDLQKCKVLLKGGENRIRLQKSKLAVCNLLASPVPALKNLFNKNSVKLQQREVAVLLEGGKDELARIRAEQMVRDELLIESYEIVEVLCETLLTRHNLLALNFHATKENPYPPLPPEIAEAVCSIAFASCRLDASELQTLTEMLASRFGPELIDSACAGQPSQRVWGVNSLVNPRLYSKLLYSVPDGNVVLQKLQDIADMFQLEWKAPAEFEELKDHSVLDSTASTPVFSGNAQRARYLPEASSFSDEKIGDDVFCTNESEQTEEGRDPSDDLSARLEALKRNR”, the protein production was “failed”.
In the case of “MASNIILFEDIFVVDQLDPDGKKFDKVTRVQATSHNLEMFMHLDVNTEVYPLAVGDKFTLALAPTLNLDGTPDTGYFTPGAKKTLADKYEYIMHGKLYKISERDGKTPKAELYVSFGGLLMLLKGDPAHISHFELDQRLFLLMRKL”, the protein production is reported as “failed”.
With “MGTFIEPSKVTLKDYLNHWLEIKSMSIEKSTFAGYKAFINQHVIPSIGMVTLHKLNVIHIQKCYKTAIDKGIANNSILLMHRILKSALNLAVKQNIISRNPADFAEIPLEHHHHHH” the protein production was “failed”.
With “MKLTIIRLQHFSDQDRIDLGKIWPSQDLSTLTLDENHRLYAAHFNERLLGAVRVTLRGVEGELSDLCVREVTRRRGVGQYLVEETLRDNPAINSWRVADHGVEDRGVMAAFMQALGFSAQQNGWEKH” the protein production was “failed”.
With “MDMNTLLSLSWHLMVPEFIILGAAILLSICDLFFKLNHRYVALGAIASVVLAIVSLITLYSEPTGDILNGSFVLDGFSKGFKTLLLGGAALILCIAMSDDKKNPIEDKGEYYYLFLMALLGAMFMASSVDFITLFVGLELLSLSSYILVGIRKKNLTSNEAAMKYVINGGIGTAITLFGMSYLYGITGSTNIVDMQKVFAGELAGGIQLLLALAFLLLLVGLSFKIATVPFHMWAPDVYEGAATPVTAFLGTISKIAGFLLIIRLFLMVFASVSVQGDTQSLYGRMSIYIAVLASITMIIGNVVALKQYNVKRLFAYSGIAHAGYLLVPLVALSPFTMDSMWFYMLAYMLMNIGAFAIIHGLILQSDKENITIFTGLYKRSPFTAIVMTIFILSLAGIPGTAGFIGKINIFLGALHVEPAHYVLASIMMGTTVISFVYYFRILQQMFFRTGEVEEKIRLPLNIKVVMSLCAISIVILGIMPMIGYNFFYEYFPLMKDFFFLGNVVQ” the protein production was “failed”.
For “MKIELLLLFLVFAWDGYFFLRYIIGLTRKYRTIQWNPTVSVIIPAYNEEENIESAIKAALSQDYPVSEVIVVDDGSEDKTYERALRMAQEDTRVKVIRIPHGGKARALNEGIKVARGEIIVTTDADSYMAKDAVRRLVERFYSPDIVGVGGQIRVVVESFLTLVQDIEHLRIAMYRRAKELEDLSLAPGPLSAFRREALDQIGGIAESIVEDYATTKLLKKVGKVVYAPKAKLFTRMPITLKELWRQRKRWFIGDLNHLEPKDYAILMLSDFIAFLDVILPLLFIVRGEFLLLGAFFGFEILTMLPPIIFEGGSIIEALSFPFILIFLAMFYLGIHIYGYLTKLNAKIFK”, the protein production was “failed”.
With “MEDGIENTSPFNGNGESGFFKLPDREILESFRLQKVFPDSPFGFPSGHVALTTALWGGASRVFNSRTAGRLAPMVVLLMAFSRMYLGRHFLGDVIGGAALGLTLLVVFTYFLKSPLKDDFFEKENFKLAFRQKNLFFYSAMFAVPVVFVSLSLISGEVAGFFLGTNTAYLLIIRKGLPEDEGSTGQRALRVFITLMMFGLSALVLDAGFGIIGIAGYPDDTLIEFLKSFIPAFTIWISVSICIKLGLYNIASTEQIE” the protein production was “failed”.
In the case of “MKRNIFSIGFISVVLFIVLGACVGLAASEALQGSEQEINSAFSNQITPVISGDYIVWQDERDGNWDIYMYDMSAGRTETSLFNGPKDEIEPAISGSRVVLADNRRGNYDIYMYDISTKKEVQVTSDKSEQKEPAISEDIIVWTDRRNQNTDIYMYDLTTKEETRITDDKADQSQPAVWGNIIVWKDTRNGNEDIYMYDISAGKESPVVMDSAAQTNPVIEGDYIVWEDRRAGNLDIYMYEISTGKEKPVCTDPSPQKTPAISDGRIVWADGRIKGTNIFIYDIATGQEKTVSTASEYESNPSIDGNRIVWQDKRKGAMDIFMFTEDASETESTAGEKTEAETGSKAPLGIYPVSAGVIAAYLMINSGKKGKRKT”, the protein production is reported as “failed”.
In the case of “MEKLENFWTRDELNTFFDYVTPERDVEQFTMFRVLAYSGIRKGELLALTWKDINFEDNTLRVNKTLTQGLGGKLIVQPPKSRAGRRTIDLDDSTMRYLRQWKGVQRETFLGMGFNTNNVDQLVFASNRNHFRSMNTPTKWLNKAIKATGLKHISIHGFRHTHASLLYQSGVGLKETQQRLGHSRADSSVTLDVYTHTTEQQNVAALQRFENYVEAKLEHHHHHH”, the protein production is reported as “failed”.
For “IIWDWNVERDRIIVHPDMKSLFGTETHKLNGPMQNWISALHHDDRERFQAVLDIILKNKKGRIDQIFRLSSGGGYYHWFSLRARPAMQKDGKITRVIGTIVNITNHKKA”, the protein production was “failed”.
